These results are taken from the RNAGym collection of RNA variant scans (doi:10.7554/elife.80360).

B1: HDV Ribozyme (parent)
chain: GGCCGGCAUGGUCCCAGCCUCCUCGCUGGCGCCGGCUGGGCAACAUUCCGAGGGGACCGUCCCCUCGGUAAUGGCGAAUGGGACCCA

The data set covers variants of B1. Nature of the data set: self-cleavage, relative activity (ratio to wild type); higher = more cleavage; co-transcriptional.
Take C36G C63G: the self-cleavage was determined as 0.212.
Next, C36G C63A: 0.269; G35C C75G: 0.391; G35A G82U: 0.241.
G34U C64U: the self-cleavage came to 0.246.
Regarding G35A A70U, the self-cleavage worked out at 0.62.
Next, G35U C41U: 0.63.
C36A A43G: the self-cleavage is 0.277.
With C36G C48G, the self-cleavage was found to be 0.
Under G35A G54C stands 0.69.
Under G34A C62G stands 0.13; under G35C G67A, 0.148; under G34C C85G, 0.125.
Next, G34C C85A: 0.249; G35C C85A: 0.213.
With G34C U37C, the self-cleavage came out at 0.156.
Next, G34C U37G: 0; G34U C66G: 0.164.
For G34U C66A, the self-cleavage was 0.0712.
Take G34C G55C: the self-cleavage is 0.261.
As for G35U A83C, the self-cleavage was determined as 0.181.
Under G35U A83G stands 0.241; under G34A G54A, 0.16; under C36G A43U, 0.0755.
Under C36G G67U stands 0.0361.
For the variant C36G G67A, the self-cleavage is 0.157.
Consider C36A U47A, for which the self-cleavage worked out at 0.196.
Next, G35A C41G: 0.222; G35A C41U: 0.524.
Under G34A G55A stands 0.17; under G34A G55U, 0.192; under G34A C49G, 0.155.
Consider G35C A51C, for which the self-cleavage stood at 0.297.
Next, G35C A51G: 0.415; G34A A70U: 0.132; G34C G50U: 0.175.
Next, G34U G52A: 0.208; G34C C44U: 0.0739; C36A C57U: 0.102.
Next, C36A C85U: 0.158; G34A U72A: 0.17.
Consider C36G U37A, for which the self-cleavage was 0.446.
Under C36G U37C stands 0.158; under C36G G59U, 0.199; under G34A G82A, 0.0671.
On to G34A G82U, for which the self-cleavage was found to be 0.129.
Next, G35A C84G: 0.45; G35U C44U: 0.193.
Next, C36U A71G: 0.653; G35U U79A: 0.166; G35C G39C: 0.119.
G35U C49U: the self-cleavage was found to be 0.554.
Under G35C G76U stands 0.465; under G35C A71G, 0.262; under G35C A71U, 0.128.
Under G35A G55C stands 0.358; under C36G U47G, 0.
Under G34U G35U stands 0.175; under G35C A87U, 0.208; under C36A G39C, 0.128.
Regarding C36G C41U, the self-cleavage worked out at 0.199.
Under G34A C57U stands 0.332; under G34C U79C, 0.227; under G35C U69C, 0.291.
Next, G35U U72C: 0.0811.
Under C36A A56C stands 0.131; under C36A U69G, 0.161; under G34C G35C, 0.246.
Turning to C36G C64G, the self-cleavage came to 0.156.
Under C36G C64U stands 0.138; under C36A C84G, 0.208.
Under G34C G82C stands 0.117; under C36A C44A, 0.19; under C36A C44U, 0.208.
Next, G35U A87G: 0.257.
G34A C86A: the self-cleavage is 0.0683.
Next, G35C G59A: 0.256.
Next, G34C C57G: 0.0978.
Next, C36A C62G: 0.17; G34U C44A: 0.0545; G35U U46G: 0.141.
G35U U46A: the self-cleavage stood at 0.116.
Under G35C C64A stands 0.113; under C36U C63U, 0.904.
Take C36U A78G: the self-cleavage came to 0.128.
Next, G34A C61U: 0.213; C36G U79G: 0.0437.
Next, G35U G52C: 0.366.
As to G35U A51C, the self-cleavage is 0.332.
As to G35A C64U, the self-cleavage is 0.475.
For G34A U65A, the self-cleavage worked out at 0.0692.
Take G34A U65C: the self-cleavage turned out to be 0.141.
Under G34A U65G stands 0.178; under C36G G52C, 0.166; under C36U A42C, 0.155.
Under G34A C66U stands 0.0665; under G34A C66A, 0.286.
Under G34C G53A stands 0.229; under G34C U69A, 0.0739; under G34U A42G, 0.0449.
Take G35U A77G: the self-cleavage stood at 0.305.
Regarding G34A C84A, the self-cleavage was 0.126.
Under C36A G73C stands 0.178.
G35U U65A: the self-cleavage was found to be 0.35.
Take G35U U65G: the self-cleavage worked out at 0.424.
Under G34A G59A stands 0.214; under G34A G59C, 0.225; under G34A G59U, 0.266.
Under G35A A56C stands 0.346; under C36G U72G, 0.151.
Next, G34C C84U: 0.217; G34U G40U: 0.0882; G34A G53A: 0.174.
With G35U U69A, the self-cleavage amounted to 0.212.
Next, G35C G68U: 0.305.
On to C36A G59C, for which the self-cleavage was 0.0978.
Under G34U U37C stands 0.148; under G34U U37A, 0.158.
Next, C36A C75U: 0.0963.
Next, C36U A83U: 0.408.
As for G34C A56C, the self-cleavage worked out at 0.237.
Next, G34C A56G: 0.142; G34A C48G: 0.119; G34A C41G: 0.141.
Consider G34A G38A, for which the self-cleavage came to 0.0583.
Under C36U C62A stands 0.53; under G35C A43U, 0.0386; under C36G G82A, 0.07.
Under C36G G82U stands 0.142; under G34C G54U, 0.123; under C36A U46G, 0.123.
Under G35A A87U stands 0.391; under G35A G74U, 0.231; under C36G G68C, 0.17.
For the variant C36G G68A, the self-cleavage came out at 0.233.
Under G34C G81A stands 0.16; under G34U A45U, 0.0378; under G35C G40U, 0.145.
C36U C58G: the self-cleavage was 0.759.
Next, G34A U69C: 0.291; G35U G74U: 0.182; G35U G74A: 0.058.
Next, G35A A45C: 0.0378; C36G C61A: 0.116.
Under G34U G68A stands 0.274; under G35U G68C, 0.4; under G35A U47A, 0.466.
In the case of G34C U72C, the self-cleavage is 0.19.
Next, G34C C63U: 0.287.
With C36G G39C, the self-cleavage worked out at 0.232.
Next, G35A G76A: 0.709; C36A A87G: 0.125.
Under C36G U69G stands 0.0554; under C36G U69A, 0.229.
With C36G U69C, the self-cleavage is 0.155.
On to G34U G81C, for which the self-cleavage turned out to be 0.144.
As to C36A G76A, the self-cleavage was found to be 0.266.
Take C36G A83C: the self-cleavage turned out to be 0.0831.
For C36G A83G, the self-cleavage turned out to be 0.151.
Under C36U A56G stands 0.628; under G34C U46G, 0.0504.
Next, G34A G73A: 0.128.
For G34A C63A, the self-cleavage came to 0.231.
Under G34U C36G stands 0.0302.
Consider G35C C57G, for which the self-cleavage turned out to be 0.201.
As for G35C C57A, the self-cleavage was found to be 0.302.
Next, G35U C84A: 0.308.
